# Key:
# Escherichia coli [1] = assay: Antimicrobial activity against Escherichia coli TOP10 by solid agar dilution method; assay type: functional
# Pseudomonas aeruginosa [2] = assay: Antimicrobial activity against Pseudomonas aeruginosa 531 expressing beta-lactamase BEL-2 by solid agar dilution method; assay type: functional
# Escherichia coli [3] = assay: Antimicrobial activity against Escherichia coli TOP10 expressing recombinant beta-lactamase BEL-1 by solid agar dilution method; assay type: functional
# Escherichia coli [4] = assay: Antimicrobial activity against Escherichia coli TOP10 expressing recombinant beta-lactamase BEL-2 by solid agar dilution method; assay type: functional
# Pseudomonas aeruginosa [5] = assay: Antimicrobial activity against Pseudomonas aeruginosa 51170 expressing beta-lactamase BEL-1 by solid agar dilution method; assay type: functional
# [6] = substrate: CC(C)(O/N=C(\C(=O)N[C@@H]1C(=O)N2C(C(=O)[O-])=C(C[n+]3ccccc3)CS[C@H]12)c1csc(N)n1)C(=O)O; assay: (§1) Ratio of Kcat to Km for Pseudomonas aeruginosa 531 beta-lactamase BEL-2
# [7] = substrate: CO/N=C(\C(=O)N[C@@H]1C(=O)N2C(C(=O)[O-])=C(C[N+]3(C)CCCC3)CS[C@H]12)c1csc(N)n1; assay: as §1
# [8] = substrate: CC(=O)OCC1=C(C(=O)O)N2C(=O)[C@@H](NC(=O)Cc3cccs3)[C@H]2SC1; assay: as §1
# [9] = substrate: CO/N=C(\C(=O)N[C@@H]1C(=O)N2C(C(=O)O)=C(COC(N)=O)CS[C@H]12)c1ccco1; assay: as §1
# [10] = substrate: O=C(Cc1cccs1)N[C@@H]1C(=O)N2C(C(=O)[O-])=C(C[n+]3ccccc3)CS[C@H]12; assay: as §1
# [11] = substrate: C[C@H]1[C@H](NC(=O)/C(=N\OC(C)(C)C(=O)O)c2csc(N)n2)C(=O)N1S(=O)(=O)O; assay: as §1
# [12] = substrate: CO/N=C(\C(=O)N[C@@H]1C(=O)N2C(C(=O)O)=C(COC(C)=O)CS[C@H]12)c1csc(N)n1; assay: as §1
# [13] = substrate: CC1(C)S[C@@H]2[C@H](NC(=O)Cc3ccccc3)C(=O)N2[C@H]1C(=O)O; assay: as §1
# [14] = substrate: CCN1CCN(C(=O)N[C@@H](C(=O)N[C@@H]2C(=O)N3[C@@H]2SC(C)(C)[C@@H]3C(=O)O)c2ccccc2)C(=O)C1=O; assay: as §1
# [15] = substrate: C[C@@H](O)[C@H]1C(=O)N2C(C(=O)O)=C(SCCNC=N)C[C@H]12; assay: (§2) Activity at Pseudomonas aeruginosa 531 beta-lactamase BEL-2
# [16] = substrate: CC(C)(O/N=C(\C(=O)N[C@@H]1C(=O)N2C(C(=O)[O-])=C(C[n+]3ccccc3)CS[C@H]12)c1csc(N)n1)C(=O)O; assay: as §2
# [17] = substrate: CO/N=C(\C(=O)N[C@@H]1C(=O)N2C(C(=O)[O-])=C(C[N+]3(C)CCCC3)CS[C@H]12)c1csc(N)n1; assay: as §2
# [18] = substrate: CC(=O)OCC1=C(C(=O)O)N2C(=O)[C@@H](NC(=O)Cc3cccs3)[C@H]2SC1; assay: as §2
# [19] = substrate: CO[C@@]1(NC(=O)Cc2cccs2)C(=O)N2C(C(=O)O)=C(COC(N)=O)CS[C@@H]21; assay: as §2
# [20] = substrate: CO/N=C(\C(=O)N[C@@H]1C(=O)N2C(C(=O)O)=C(COC(N)=O)CS[C@H]12)c1ccco1; assay: as §2
# [21] = substrate: O=C(Cc1cccs1)N[C@@H]1C(=O)N2C(C(=O)[O-])=C(C[n+]3ccccc3)CS[C@H]12; assay: as §2
# [22] = substrate: C[C@H]1[C@H](NC(=O)/C(=N\OC(C)(C)C(=O)O)c2csc(N)n2)C(=O)N1S(=O)(=O)O; assay: as §2
# [23] = substrate: CO/N=C(\C(=O)N[C@@H]1C(=O)N2C(C(=O)O)=C(COC(C)=O)CS[C@H]12)c1csc(N)n1; assay: as §2
# [24] = substrate: CC1(C)S[C@@H]2[C@H](NC(=O)Cc3ccccc3)C(=O)N2[C@H]1C(=O)O; assay: as §2
# [25] = substrate: CCN1CCN(C(=O)N[C@@H](C(=O)N[C@@H]2C(=O)N3[C@@H]2SC(C)(C)[C@@H]3C(=O)O)c2ccccc2)C(=O)C1=O; assay: as §2
# [26] = substrate: CO/N=C(\C(=O)N[C@@H]1C(=O)N2C(C(=O)[O-])=C(C[N+]3(C)CCCC3)CS[C@H]12)c1csc(N)n1; assay: (§3) Ratio of Kcat to Km for Pseudomonas aeruginosa 51170 beta-lactamase BEL-1
# [27] = substrate: CC(=O)OCC1=C(C(=O)O)N2C(=O)[C@@H](NC(=O)Cc3cccs3)[C@H]2SC1; assay: as §3
# [28] = substrate: CO/N=C(\C(=O)N[C@@H]1C(=O)N2C(C(=O)O)=C(COC(N)=O)CS[C@H]12)c1ccco1; assay: as §3
# [29] = substrate: O=C(Cc1cccs1)N[C@@H]1C(=O)N2C(C(=O)[O-])=C(C[n+]3ccccc3)CS[C@H]12; assay: as §3
# [30] = substrate: C[C@H]1[C@H](NC(=O)/C(=N\OC(C)(C)C(=O)O)c2csc(N)n2)C(=O)N1S(=O)(=O)O; assay: as §3
# [31] = substrate: CO/N=C(\C(=O)N[C@@H]1C(=O)N2C(C(=O)O)=C(COC(C)=O)CS[C@H]12)c1csc(N)n1; assay: as §3
# [32] = substrate: CC1(C)S[C@@H]2[C@H](NC(=O)Cc3ccccc3)C(=O)N2[C@H]1C(=O)O; assay: as §3
# [33] = substrate: CCN1CCN(C(=O)N[C@@H](C(=O)N[C@@H]2C(=O)N3[C@@H]2SC(C)(C)[C@@H]3C(=O)O)c2ccccc2)C(=O)C1=O; assay: as §3
# [34] = substrate: C[C@@H](O)[C@H]1C(=O)N2C(C(=O)O)=C(SCCNC=N)C[C@H]12; assay: (§4) Activity at Pseudomonas aeruginosa 51170 beta-lactamase BEL-1
# [35] = substrate: CC(C)(O/N=C(\C(=O)N[C@@H]1C(=O)N2C(C(=O)[O-])=C(C[n+]3ccccc3)CS[C@H]12)c1csc(N)n1)C(=O)O; assay: as §4
# [36] = substrate: CO/N=C(\C(=O)N[C@@H]1C(=O)N2C(C(=O)[O-])=C(C[N+]3(C)CCCC3)CS[C@H]12)c1csc(N)n1; assay: as §4
# [37] = substrate: CC(=O)OCC1=C(C(=O)O)N2C(=O)[C@@H](NC(=O)Cc3cccs3)[C@H]2SC1; assay: as §4
# [38] = substrate: CO[C@@]1(NC(=O)Cc2cccs2)C(=O)N2C(C(=O)O)=C(COC(N)=O)CS[C@@H]21; assay: as §4
# [39] = substrate: CO/N=C(\C(=O)N[C@@H]1C(=O)N2C(C(=O)O)=C(COC(N)=O)CS[C@H]12)c1ccco1; assay: as §4
# [40] = substrate: O=C(Cc1cccs1)N[C@@H]1C(=O)N2C(C(=O)[O-])=C(C[n+]3ccccc3)CS[C@H]12; assay: as §4
# [41] = substrate: C[C@H]1[C@H](NC(=O)/C(=N\OC(C)(C)C(=O)O)c2csc(N)n2)C(=O)N1S(=O)(=O)O; assay: as §4
# [42] = substrate: CO/N=C(\C(=O)N[C@@H]1C(=O)N2C(C(=O)O)=C(COC(C)=O)CS[C@H]12)c1csc(N)n1; assay: as §4
# [43] = substrate: CC1(C)S[C@@H]2[C@H](NC(=O)Cc3ccccc3)C(=O)N2[C@H]1C(=O)O; assay: as §4
# [44] = substrate: CCN1CCN(C(=O)N[C@@H](C(=O)N[C@@H]2C(=O)N3[C@@H]2SC(C)(C)[C@@H]3C(=O)O)c2ccccc2)C(=O)C1=O; assay: as §4
molecule,measurement,setting,value
CO[C@@]1(NC(=O)Cc2cccs2)C(=O)N2C(C(=O)O)=C(COC(N)=O)CS[C@@H]21 [CEFOXITIN],MIC,Escherichia coli [1],2 µg/mL
same,MIC,Pseudomonas aeruginosa [2],512 µg/mL
same,MIC,Escherichia coli [3],2 µg/mL
same,MIC,Escherichia coli [4],2 µg/mL
same,MIC,Pseudomonas aeruginosa [5],512 µg/mL
CC1(C)S[C@@H]2[C@H](NC(=O)[C@H](C(=O)O)c3ccsc3)C(=O)N2[C@H]1C(=O)O [TICARCILLIN],MIC,Escherichia coli [1],4 µg/mL
same,MIC,Pseudomonas aeruginosa [2],> 512 µg/mL
same,MIC,Escherichia coli [3],> 512 µg/mL
same,MIC,Escherichia coli [4],> 512 µg/mL
same,MIC,Pseudomonas aeruginosa [5],> 512 µg/mL
"Beta-lactamase (Pseudomonas aeruginosa), D2SSQ3 (protein) MKLLLYPLLLFLVIPAFAQADFEHAISDLEAHNQAKIGVALVSENGNLIQGYRANERFAMCSTFKLPLAALVLSRIDAGEENPERKLHYDSAFLEEYAPAAKRYVATGYMTVTEAIQSALQLSDNAAANLLLKEVGGPPLLTKYFRSLGDKVSRFDRIEPTLNTNTPGDERDTTTPMSMAQTVSKLIFGDTLTYKSKGQLRRLLIGNQTGDKTIRAGLPDSWVTGDKTGSCANGGRNDVAFFITTAGKKYVLSVYTNAPELQGEERALLIASVAKLARQYVVH",kcat/Km,[6],47000 M⁻¹ s⁻¹
same,kcat/Km,[7],10000 M⁻¹ s⁻¹
same,kcat/Km,[8],2.2e+06 M⁻¹ s⁻¹
same,kcat/Km,[9],73000 M⁻¹ s⁻¹
same,kcat/Km,[10],150000 M⁻¹ s⁻¹
same,kcat/Km,[11],280000 M⁻¹ s⁻¹
same,kcat/Km,[12],290000 M⁻¹ s⁻¹
same,kcat/Km,[13],300000 M⁻¹ s⁻¹
same,kcat/Km,[14],300000 M⁻¹ s⁻¹
same,kcat,[15],< 0.01 s⁻¹
same,Km,[16],0.64 µM
same,kcat,[16],0.03 s⁻¹
same,Km,[17],0.3 µM
same,kcat,[17],0.003 s⁻¹
same,Km,[18],2 µM
same,kcat,[18],4.3 s⁻¹
same,kcat,[19],< 0.01 s⁻¹
same,Km,[20],12 µM
same,kcat,[20],0.88 s⁻¹
same,Km,[21],8 µM
same,kcat,[21],1.2 s⁻¹
same,Km,[22],0.36 µM
same,kcat,[22],0.1 s⁻¹
same,Km,[23],0.45 µM
same,kcat,[23],0.13 s⁻¹
same,Km,[24],4 µM
same,kcat,[24],1.2 s⁻¹
same,Km,[25],0.3 µM
same,kcat,[25],1.1 s⁻¹
"Beta-lactamase bla(BEL1) (Pseudomonas aeruginosa), Q3SAW3 (protein) MKLLLYPLLLFLVIPAFAQADFEHAISDLEAHNQAKIGVALVSENGNLIQGYRANERFAMCSTFKLPLAALVLSRIDAGEENPERKLHYDSAFLEEYAPAAKRYVATGYMTVTEAIQSALQLSDNAAANLLLKEVGGPPLLTKYFRSLGDKVSRLDRIEPTLNTNTPGDERDTTTPMSMAQTVSKLIFGDTLTYKSKGQLRRLLIGNQTGDKTIRAGLPDSWVTGDKTGSCANGGRNDVAFFITTAGKKYVLSVYTNAPELQGEERALLIASVAKLARQYVVH",kcat/Km,[26],7000 M⁻¹ s⁻¹
same,kcat/Km,[27],540000 M⁻¹ s⁻¹
same,kcat/Km,[28],250000 M⁻¹ s⁻¹
same,kcat/Km,[29],230000 M⁻¹ s⁻¹
same,kcat/Km,[30],100000 M⁻¹ s⁻¹
same,kcat/Km,[31],250000 M⁻¹ s⁻¹
same,kcat/Km,[32],150000 M⁻¹ s⁻¹
same,kcat/Km,[33],130000 M⁻¹ s⁻¹
same,kcat,[34],< 0.01 s⁻¹
same,Km,[35],> 700 µM
same,kcat,[35],> 1.5 s⁻¹
same,Km,[36],150 µM
same,kcat,[36],1 s⁻¹
same,Km,[37],280 µM
same,kcat,[37],150 s⁻¹
same,kcat,[38],< 0.01 s⁻¹
same,Km,[39],40 µM
same,kcat,[39],10 s⁻¹
same,Km,[40],130 µM
same,kcat,[40],30 s⁻¹
same,Km,[41],100 µM
same,kcat,[41],10 s⁻¹
same,Km,[42],250 µM
same,kcat,[42],30 s⁻¹
same,Km,[43],20 µM
same,kcat,[43],3 s⁻¹
same,Km,[44],15 µM
same,kcat,[44],2 s⁻¹

# — ChEMBL document CHEMBL1212771, “BEL-2, an extended-spectrum beta-lactamase with increased activity toward expanded-spectrum cephalosporins in Pseudomonas aeruginosa” (Antimicrob Agents Chemother, 2010)
